According to the nanobody polyreactivity screen of Harvey et al. (2022):

test: yeast display, Sf9 membrane polyspecificity reagent, FACS + sequencing; frameworks hold sequencing errors
Summary of the method: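 In a synthetic yeast display library (Saccharomyces cerevisiae BJ5465), nanobody expression was induced with galactose for 36–48 hours. FACS gates were set low and high (top ~1%) using anti-HA fluorescence for expression and streptavidin fluorescence for binding of the Sf9 membrane reagent. Each polyreactivity label is drawn from the gate of origin.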

Sequence	polyreactivity (PSR sort gate)
QVQLVESGGGLVQAGGSLRLSCAASGRIFVVYAMGWYRQAPGKERELVAAITYGGGSTHYADSVKGRFTISRDNAKNTVYLQMNSLKPVDTAVYYCAADVYLVKYDYWGQGTQVTVSS	low polyreactivity
QVQLVESGGGLVQAGGSLRLSCAASGRIFVVYAMGWYRQAPGKERELVAAITYGGGSTHYADSVKGRFTISRDNAMNTVYLQMISLKPEDTAVYYCAADLFYHSYGYEYWGQGTQVTVSS	low polyreactivity
QVQLVESGGGLVQAGGSLRLSCAASGRIFVYNAMGWYRQAPGKERELVAAISGGGSTYYADSVKGRFTISRDNAKNTVYLQMNSLKPEDTAVYYCNTVFSGYARGWFQPAYNYWGQGTQVTVSS	high polyreactivity
QVQLVESGGGLVQAGGSLRLSCAASGRIFVYNAMGWYRQAPGKERELVAGITASGGSTYYADSGKGRFTISRDNAKNTVYLQMNSLKPEDTAVYYCAATRYKRRYYYWGQGTQVTVSS	high polyreactivity
QVQLVESGGGLVQAGGSLRLSCAASGRIFVYNAMGWYRQAPGQERELVAAISRGGSTNYADSVKGRFTISRDNAKNTVYLQMNSLKPEDTAVYYCAADIYQYGYDYWGQGTQVTVSS	low polyreactivity
QVQLVESGGGLVQAGGSLRLSCAASGRIFVYNVMGWYSQSPGKERELVAAISWGTGSTYADSVKGRFTISRDNAKNTVYLQMNSLKPEDTAVYYCADDSFIPPYDHWGQGTQVTVSS	low polyreactivity
QVQLVESGGGLVQAGGSLRLSCAASGRIFVYYAMGWYRPAPGKERELVAAITSGGSTYYADSVKGRFTISRDNANNTVYLQMNSLKPEDTAVYYSAAYRYYYLVYQQHREYGYWGQGSQVTVSS	high polyreactivity
QVQLVESGGGLVQAGGSLRLSCAASGRIFVYYTMGWYRQAPGKERELVAAITGSGGSTYYADSVKGRFTISRDNAKNTVYLQMNSLKPEDTAVYYCAARYASTGGGYKYYYWGQGTQVTVSS	high polyreactivity
QVQLVESGGGLVQAGGSLRLSCAASGRIFVYYVMGWYRQAPGKERELVAAITYSGGSTYYADSVKGRFTISRDNAKNTVYLQMNRLKTEDTAVYYCNKVDAFGIVRLYYWGQGTQVTVSS	low polyreactivity
QVQLVESGGGLVQAGGSLRLSCAASGRIFWANAMGWYRQAPGKERELVAAISRRGGSTYYADSVKGRFTISRDNAKNTVSLQMNSLKPEDTAVYYCNAVSPYTSDDYDYWGQGTQVTVSS	high polyreactivity
QVQLVESGGGLVQAGGSLRLSCAASGRIFWDIDMGWYRQAPGKEWELVAAISRRGGSTSYADSVKGRFTISRDNAKTTVYLQINSLKPEDTAVYYCNVRTRWTRVRRYDYWGQGTQVTVSS	high polyreactivity
QVQLVESGGGLVQAGGSLRLSCAASGRIFWDNAMGWYRQAPGKERELVAAISDSVVITYYADSVKGRFTISRDNAKNTVYLQMNSLKPEDTAVYYCAADKRGSVYLSSFWMDYWGQGTQVTVSS	low polyreactivity
QVQLVESGGGLVQAGGSLRLSCAASGRIFWHYAMGWYRQAPGKERELVAAIDYSGGRTRYADSVKGRFTISRDNAKNTVYLQMNSLKPEDTAVYYCAARRSSWGSFTGYYYWGQGTQVTVSS	high polyreactivity
QVQLVESGGGLVQAGGSLRLSCAASGRIFWINAMGWYRQAPGKERELVATISSGSTSYADSVKGRFTISRDNAKNTVYLHLNSLKPEDTAVYYCAVSLRYTRSGAYYYWGQGTQVTVSS	low polyreactivity
QVQLVESGGGLVQAGGSLRLSCAASGRIFWLYAMGWYRQAPGKERELVAVISWSGGTTYYADSVKGRFTISRDNAKNTVYLQMNSLKPEYTAVYYCAAQVGYYTNYGEFDYLGQGTQVTVSS	low polyreactivity
QVQLVESGGGLVQAGGSLRLSCAASGRIFWPYAMGWYRQAPGKERELVAAITSGGSTYYADSVKGRFTLSRDNAKNTVYLQMTSLKPEDTAVYYCAKRSSGVSVPVAYGGIKRYNSWGQGTQVTVSS	low polyreactivity
QVQLVESGGGLVQAGGSLRLSCAASGRIFWRNTMGWYRQAPGKERELVAAINYSGGRTYYADSVKGRFTISRDNAKNTVYLQMNSLKPEDTAVYYCAATPPVATNGRYYYWGQGTQVTVSS	low polyreactivity
QVQLVESGGGLVQAGGSLRLSCAASGRIFWVNVMGRYIQAPGKERELVPAITRGASTYADSVKGRFTISRDNAKNTVYLQMNSLKPEDTAVYYCAADTKRRSIRYDYWGEGTQVTVSS	high polyreactivity
QVQLVESGGGLVQAGGSLRLSCAASGRIFWVNVMGWSRQAPGKERELVAAITRGASTYADSVKGRFTISRDNAKNTVYLQMNSLKPEDTAVYYCAADTKRRSIRYDYWGQGTQVTVSS	high polyreactivity
QVQLVESGGGLVQAGGSLRLSCAASGRIFWYYAMGWYRQAPGKERELVATISSRSGSTYYADSVKGRFTISRDNAKNTVNLQMNSLKPEDTAVYYCAAGTPYYLGYRHNYWGQGTQVTVSS	high polyreactivity
QVQLVESGGGLVQAGGSLRLSCAASGRIFWYYAMGWYRQAPGKERELVDAISVDGGSTYDADSVKGRFTISRDNAKNTVYLQMNSLKPEDTAIYYCAAQKYPGFTHGYWGQGTQVTVSS	low polyreactivity
QVQLVESGGGLVQAGGSLRLSCAASGRIFWYYAVGWYRQAPGKERELVARISSSGGSTYYADSVKGRFTISRDNANNTVYLQMNSLKPEDTAVYYCAKERYSGSSRYPMDYWGQGTQVTVSS	high polyreactivity

Sequence	polyreactivity (PSR sort gate)
QVQLVESGGGLVQAGGSLRLSCAASGRIFWYYDMGWYRQAPGKERELVAAITSGGRTYYADSVKGRFTISRDNAKNTVYLQMNRLKPEDTAVYYCAAEGFYTTGSPYSGGLDYWGQGTQVTVSS	low polyreactivity
QVQLVESGGGLVQAGGSLRLSCAASGRIFYANVMGWYRQAPGKEREFVSAIRWSGGRSYYADSVKGRFTISRDNAKYTVYLQMNSLKPEDTAVYYCAADGRVQSPQKFGYDYWGQGTQVTVSS	low polyreactivity
QVQLVESGGGLVQAGGSLRLSCAASGRIFYAYAMGWYRPAPGKERELVAAITWRGGRTFYADSVKGRFTISRDNAKNTVYLQMNSLKPEDTAVYYCATRGAPYGMDYWGQGTQVTVSS	high polyreactivity
QVQLVESGGGLVQAGGSLRLSCAASGRIFYAYAMGWYRQAPGKEREFVAAISKRGGSTYYADSVKGRFTISRDNAKNTVYFQMNSLKPEDTAVYYCAADHEAIVRYDYWGQGTQVTVSS	low polyreactivity
QVQLVESGGGLVQAGGSLRLSCAASGRIFYAYAMGWYRQAPGKERELVAAISSGGSTKYADSVKGRFTISRDNAKNTVYLQMNSLKPEDTAVYYCNADATAQSFGTLFDYWGQGTQVTVSS	low polyreactivity
QVQLVESGGGLVQAGGSLRLSCAASGRIFYAYAMGWYRQAPGKERELVAAISWSGGSTYYADSVKGRFTISRDNAKNTVNLQMNSLKPEDTAVYYCNADYWGQGTQVTVSS	low polyreactivity
QVQLVESGGGLVQAGGSLRLSCAASGRIFYAYAMGWYRQAPGTERELVAAISSGGSTKYADSVKGRFTISRDNAKNTVYLQMNSLKPEDTAVYYCNADATAQSFGSLFDYWGLGTQVTVSS	low polyreactivity
QVQLVESGGGLVQAGGSLRLSCAASGRIFYDYTMGWYRQAPGKERELVAAINSGGGSTYYADSVKGRFTISRDNAKNTVYLQMNSLKPEDTAVYYCNADGQWNIWEYDYWGQGTQVTVSS	high polyreactivity
QVQLVESGGGLVQAGGSLRLSCAASGRIFYFNAMGWYRPAPGKDRELVADISSGGRTNYADSVKGRFTISRDNAKNTVYLQMNSLKPEDTAVYYCNAEAYTSSGGYRGYDFDYWGQGTQVTVSS	low polyreactivity
QVQLVESGGGLVQAGGSLRLSCAASGRIFYFYAMGWYRQAPGKERELVAAIDWSGGSTYYADSVKGRFTISRDNAKNTVYLQMNSLKPEDTAVYSCAARWRSKGVQYYYWGQGSQVTVSS	high polyreactivity
QVQLVESGGGLVQAGGSLRLSCAASGRIFYFYVMGWYRQAPGKERELVAGISDGSTNYADSVKGRFTISRDNAKNTVYLQMNSLKPEDTAVYYCAKDPLVIRFVQGRFGYDYWGQGTQVTVSS	low polyreactivity
QVQLVESGGGLVQAGGSLRLSCAASGRIFYGNPMGWYRQAPGKERELVAAISSGGGSTYYADSVKGRFTISRDNAKNTVYLQMNSLKPEDTAVYYCAADPVHRFPGTGGYWGQGTQVTVSS	low polyreactivity
QVQLVESGGGLVQAGGSLRLSCAASGRIFYGYTMGWYRQAPGKERELVAAITWSGGSTHYADSVKGRFTISRDNAKNTVYLQMNSLKPEVTAVYYCNARRRSVYRGLYDYWGQGTQVTVSS	high polyreactivity
QVQLVESGGGLVQAGGSLRLSCAASGRIFYGYTMGWYRQAPGKERELVARISSSGSTYYADSVKGRFTISRDNAKNTVYLQMNSLKPEDTAVYYCAAVRRRYGYDYWGQGTQVTVSS	high polyreactivity
QVQLVESGGGLVQAGGSLRLSCAASGRIFYGYVMGLYRQAPGKERELVAAISLSGGRTYYADSVKGRFTISRDNAKNTVYLQMNSLKPEDTAVYYCAAEGIKGISYGHDYWGQGTQVTVSS	low polyreactivity
QVQLVESGGGLVQAGGSLRLSCAASGRIFYHYAMGWYRQAPGKERELVAASNSSGGSTHYADSVKGRFTISRDNAKNTVYLQMNSLKPEDTAVYYCAADGYWRDYSGYWDYYYIYDYWGQGTQVTVSS	low polyreactivity
QVQLVESGGGLVQAGGSLRLSCAASGRIFYINAMGWYRQAPGKERELVAAISWSGSSTYYADSVKGRFTISRDNAKNTVYLQMNSLKPEDTAVYYCAAVSYKRVDYWGQGTQVTVSS	high polyreactivity
QVQLVESGGGLVQAGGSLRLSCAASGRIFYINAMGWYRQAPGKERELVAAITGGDGSTTYADSVKGRFTISRDNAKNTVYLQMNSLKPEDTAVYYCNADTARKYAESQFDHWGQGTQVTVSS	low polyreactivity
QVQLVESGGGLVQAGGSLRLSCAASGRIFYIYTMGWYRQAPGKEREFVAGINWNGGSTYYADSVKGRFTISRDNAKNTVYLQMISLKPEDSEVYYCNADQYWDRYYYWGQGTQVTVSS	low polyreactivity
QVQLVESGGGLVQAGGSLRLSCAASGRIFYKNVMGWYRQAPGKESELVATITRRGGRTFYADSVKGRFTISRDNAKNTVYLQMNSLKPEDTAVYYCATRRRIRSSFYYDIDYWGQGTQVTVSS	high polyreactivity
QVQLVESGGGLVQAGGSLRLSCAASGRIFYKYALGGYRQAPGKERELVAAISYSGGSTYYADSVKGRFTISRDNAKNTVYLQMKSLKPEDNAVYYCNAKPPFGVRSWGDYWGQGTQVTVSS	low polyreactivity
